What is called Ki is the dissociation constant of the complex between target and ligand, obtained from inhibition or displacement.

The assay has as its target GST-tagged full-length cortactin (UniProt Q60598). The assay can be described thus: pull-down.
Sequence of UniProt Q60598 (Q60598 whole entry): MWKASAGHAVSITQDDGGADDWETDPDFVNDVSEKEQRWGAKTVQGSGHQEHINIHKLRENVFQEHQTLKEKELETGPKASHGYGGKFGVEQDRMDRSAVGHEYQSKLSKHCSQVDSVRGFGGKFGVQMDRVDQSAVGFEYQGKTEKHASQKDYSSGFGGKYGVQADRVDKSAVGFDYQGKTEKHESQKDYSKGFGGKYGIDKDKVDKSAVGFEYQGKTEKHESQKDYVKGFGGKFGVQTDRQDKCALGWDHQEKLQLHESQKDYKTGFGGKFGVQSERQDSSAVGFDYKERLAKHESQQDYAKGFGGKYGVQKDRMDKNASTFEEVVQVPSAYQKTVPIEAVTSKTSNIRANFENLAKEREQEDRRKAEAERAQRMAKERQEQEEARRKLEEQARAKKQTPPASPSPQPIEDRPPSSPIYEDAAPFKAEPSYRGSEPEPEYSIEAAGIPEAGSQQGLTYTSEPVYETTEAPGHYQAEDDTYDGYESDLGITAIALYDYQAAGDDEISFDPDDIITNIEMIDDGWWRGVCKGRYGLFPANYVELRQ

In turn, “actin filaments (from UniProt P68139 1-377) (natural protein)” yielded a Ki of 0.461 µM.

The record behind these values is publication PMC4555817.
